In one assay the target is biotinylated VEGF (UniProt P15692-4 27-191, limits assumed, biotinylated). Description: VEGF capture ELISA, DVD-Ig captured by anti-human Fc, biotinylated VEGF.
The target in assay [1] is T1, biotin-labeled human DLL4 extracellular domain (human, UniProt Q9NR61 27-529, biotin-labeled).
T1 construct: extracellular domain
Briefly: DLL4 capture ELISA, DVD-Ig captured by anti-human Fc, biotin-labeled human DLL4 ECD.

In assay [2] the target is T2, placental growth factor (PLGF) (UniProt P49763-2 21-149, limits assumed).
T2 construct: also called P1GF
T2 sequence (looked up): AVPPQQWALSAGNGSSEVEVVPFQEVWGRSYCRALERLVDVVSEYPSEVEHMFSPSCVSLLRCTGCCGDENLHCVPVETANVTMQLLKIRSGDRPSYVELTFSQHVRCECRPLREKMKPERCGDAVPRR
Briefly: ligand-receptor binding competition assay, PlGF binding to VEGFR1; N-terminal VD.

In assay [3] the target is T3, human DLL4 extracellular domain (human, UniProt Q9NR61 27-529, biotin label in the Notch-1 competition ELISA (sites not given)). Briefly: cell-based or functional assay.
The target of assay [4] is T4, human DLL4 on 293G-human DLL4 cells (human, UniProt Q9NR61 27-685).
T4 construct: whole, on cells; no method paragraph describes this FACS assay
Briefly: FACS: inhibition of Notch1 binding to 293G-human DLL4 cells (competitor Notch1).

The target of assay [5] is T3, human DLL4 extracellular domain. Briefly: competition ELISA: 14 nM biotin-labelled human DLL4 ECD pre-mixed with DVD-Ig, then on coated human Notch-1 (competitor Notch-1). On the technique in general: An ELISA detects its analyte on a solid surface through an enzyme-linked reagent.

B1: DVD471 (bispecific antibody, human IgG1, kappa, L234A L235A)
heavy: not shown
light: DIQMTQSPSSLSASVGDRVTITCRASQDVSTAVAWYQQKPGKAPKLLIYSASFLYSGVPSRFSGSGSGTDFTLTISSLQPEDFATTYYCQQSYTGTVTFGQGTKVEIKRTVAAPSVFIFPPDIQMTQSPSSLSASVGDRVTITCRASQDVSTAVAWYQQKPGKAPKLLIYSASFLYSGVPSRFSGSGSGTDFTLTISSLQPEDFATYYCQQSYTTPPTFGQGTKVEIKRTVAAPSVFIFPPSDEQLKSGTASVVCLLNNFYPREAKVQWKVDNALQSGNSQESVTEQDSKDSTYSLSSTLTLSKADYEKHKVYACEVTHQGLSSPVTKSFNRGEC
notes: DVD-Ig, HC long / LC long; DLL4 domain N-terminal; also called DLL4 / VEGF DVD-Ig; DVD471H
Regarding B1, the EC50 (usually the concentration giving half of the maximal effect) is 0.56 nM with biotinylated VEGF and 0.17 nM in assay [1].

B2: DVD476 (bispecific antibody, human IgG1, kappa)
heavy: not shown
light: DIQMTQSPSSLSASVGDRVTITCSASQDISNYLNWYQQKPGKAPKVLIYFTSSLHSGVPSRFSGSGSGTDFTLTISSLQPEDFATYYCQQYSTVPWTFGQGTKVEIKRTVAAPDIQMTQSPSSLSASVGDRVTITCRASQDVSTAVAWYQQKPGKAPKLLIYSASFLYSGVPSRFSGSGSGTDFTLTISSLQPEDFATTYYCQQSYTGTVTFGQGTKVEIKRTVAAPSVFIFPPSDEQLKSGTASVVCLLNNFYPREAKVQWKVDNALQSGNSQESVTEQDSKDSTYSLSSTLTLSKADYEKHKVYACEVTHQGLSSPVTKSFNRGEC
notes: DVD-Ig, HC long / LC short; DLL4 domain C-terminal; also called VEGF / DLL4 DVD-Ig; DVD476H
Take B2: the values for the EC50 (with biotinylated VEGF; in assay [1]) were 0.22 nM and 0.21 nM, respectively.

B3: DVD470 (bispecific antibody, human IgG1, kappa)
heavy: not shown
light: DIQMTQSPSSLSASVGDRVTITCSASQDISNYLNWYQQKPGKAPKVLIYFTSSLHSGVPSRFSGSGSGTDFTLTISSLQPEDFATYYCQQYSTVPWTFGQGTKVEIKRTVAAPSVFIFPPDIQMTQSPSSLSASVGDRVTITCRASQDVSTAVAWYQQKPGKAPKLLIYSASFLYSGVPSRFSGSGSGTDFTLTISSLQPEDFATTYYCQQSYTGTVTFGQGTKVEIKRTVAAPSVFIFPPSDEQLKSGTASVVCLLNNFYPREAKVQWKVDNALQSGNSQESVTEQDSKDSTYSLSSTLTLSKADYEKHKVYACEVTHQGLSSPVTKSFNRGEC
notes: DVD-Ig, HC long / LC long; DLL4 domain C-terminal; also called VEGF / DLL4 DVD-Ig; DVD470H
In the case of B3, the EC50 in the assay with biotinylated VEGF is 0.27 nM; in assay [1] it was 0.16 nM.

B4: DVD482 (bispecific antibody, human IgG1, kappa)
heavy: not shown
light: DIQMTQSPSSLSASVGDRVTITCSASQDISNYLNWYQQKPGKAPKVLIYFTSSLHSGVPSRFSGSGSGTDFTLTISSLQPEDFATYYCQQYSTVPWTFGQGTKVEIKRTVAAPSVFIFPPDIQMTQSPSSLSASVGDRVTITCRASQDVSTAVAWYQQKPGKAPKLLIYSASFLYSGVPSRFSGSGSGTDFTLTISSLQPEDFATTYYCQQSYTGTVTFGQGTKVEIKRTVAAPSVFIFPPSDEQLKSGTASVVCLLNNFYPREAKVQWKVDNALQSGNSQESVTEQDSKDSTYSLSSTLTLSKADYEKHKVYACEVTHQGLSSPVTKSFNRGEC
notes: DVD-Ig, HC short / LC long; DLL4 domain C-terminal; also called VEGF / DLL4 DVD-Ig; DVD482H
For the molecule B4, the EC50 in the assay with biotinylated VEGF turned out to be 0.22 nM; in assay [1], 0.17 nM.

B5: DVD597 (bispecific antibody, human IgG1, kappa)
heavy: not shown
light: DIVLTQSPDSLAVSLGERVTMNCKSSQSLLNSGMRKSFLAWYQQKPGQSPKLLIYWASTRESGVPDRFTGSGSGTDFTLTISSVQAEDVAVYYCKQSYHLFTFGSGTKLEIKRTVAAPSVFIFPPDIQMTQSPSSLSASVGDRVTITCRASQDVSTAVAWYQQKPGKAPKLLIYSASFLYSGVPSRFSGSGSGTDFTLTISSLQPEDFATYYCQQSYTTPPTFGQGTKVEIKRTVAAPSVFIFPPSDEQLKSGTASVVCLLNNFYPREAKVQWKVDNALQSGNSQESVTEQDSKDSTYSLSSTLTLSKADYEKHKVYACEVTHQGLSSPVTKSFNRGEC
notes: also called DVD597VH; DVD597VL
B5: in assay [2], the IC50 (commonly the concentration at which inhibition is half-maximal) amounted to 2.94 nM.

B6: DVD599 (bispecific antibody, human IgG1, kappa)
heavy: not shown
light: DIVLTQSPDSLAVSLGERVTMNCKSSQSLLNSGMRKSFLAWYQQKPGQSPKLLIYWASTRESGVPDRFTGSGSGTDFTLTISSVQAEDVAVYYCKQSYHLFTFGSGTKLEIKRTVAAPSVFIFPPDIQMTQSPSSLSASVGDRVTITCRASQVIRRSLAWYQQKPGKAPKLLIYAASNLASGVPSRFSGSGSGTDFTLTISSLQPEDFATYYCQQSNTSPLTFGQGTKVEIKRTVAAPSVFIFPPSDEQLKSGTASVVCLLNNFYPREAKVQWKVDNALQSGNSQESVTEQDSKDSTYSLSSTLTLSKADYEKHKVYACEVTHQGLSSPVTKSFNRGEC
notes: DVD-Ig, N-term PlGF (AB047) / C-term VEGF (AB071); also called DVD599VH; DVD599VL
In assay [2], B6 gave an IC50 of 3.19 nM.

B7: DVD485 (bispecific antibody, human IgG1, kappa)
heavy: not shown
light: DIQMTQSPSSLSASVGDRVTITCRASQDVSTAVAWYQQKPGKAPKLLIYSASFLYSGVPSRFSGSGSGTDFTLTISSLQPEDFATTYYCQQSYTGTVTFGQGTKVEIKRTVAAPSVFIFPPDIQMTQSPSSLSASVGDRVTITCRASQVIRRSLAWYQQKPGKAPKLLIYAASNLASGVPSRFSGSGSGTDFTLTISSLQPEDFATYYCQQSNTSPLTFGQGTKVEIKRTVAAPSVFIFPPSDEQLKSGTASVVCLLNNFYPREAKVQWKVDNALQSGNSQESVTEQDSKDSTYSLSSTLTLSKADYEKHKVYACEVTHQGLSSPVTKSFNRGEC
notes: DVD-Ig, HC short / LC long; DLL4 domain N-terminal; also called DLL4 / VEGF DVD-Ig; DVD485H
B7: the EC50 with biotinylated VEGF is 2.5 nM; in assay [1], 5.45 nM.

B8: DVD474 (VEGF (AB071) N-terminal / DLL4 (seq. 1) C-terminal DVD-Ig, long HC linker, long LC linker) (bispecific antibody, human IgG1, kappa)
heavy: not shown
light: DIQMTQSPSSLSASVGDRVTITCRASQVIRRSLAWYQQKPGKAPKLLIYAASNLASGVPSRFSGSGSGTDFTLTISSLQPEDFATYYCQQSNTSPLTFGQGTKVEIKRTVAAPSVFIFPPDIQMTQSPSSLSASVGDRVTITCRASQDVSTAVAWYQQKPGKAPKLLIYSASFLYSGVPSRFSGSGSGTDFTLTISSLQPEDFATTYYCQQSYTGTVTFGQGTKVEIKRTVAAPSVFIFPPSDEQLKSGTASVVCLLNNFYPREAKVQWKVDNALQSGNSQESVTEQDSKDSTYSLSSTLTLSKADYEKHKVYACEVTHQGLSSPVTKSFNRGEC
notes: also called DVD474H/DVD474L
Turning to B8, the “DVD-Ig Inhibition of sFlt1 (IC50, nM)” value in assay [3] is 0.93 nM. Also, the values for the IC50 in assay [4] and in assay [5] were 27.5 nM and 2.3 nM, respectively.

B9: DVD486 (bispecific antibody, human IgG1, kappa)
heavy: not shown
light: DIQMTQSPSSLSASVGDRVTITCRASQVIRRSLAWYQQKPGKAPKLLIYAASNLASGVPSRFSGSGSGTDFTLTISSLQPEDFATYYCQQSNTSPLTFGQGTKVEIKRTVAAPSVFIFPPDIQMTQSPSSLSASVGDRVTITCRASQDVSTAVAWYQQKPGKAPKLLIYSASFLYSGVPSRFSGSGSGTDFTLTISSLQPEDFATTYYCQQSYTGTVTFGQGTKVEIKRTVAAPSVFIFPPSDEQLKSGTASVVCLLNNFYPREAKVQWKVDNALQSGNSQESVTEQDSKDSTYSLSSTLTLSKADYEKHKVYACEVTHQGLSSPVTKSFNRGEC
notes: DVD-Ig, HC short / LC long; DLL4 domain C-terminal; also called VEGF / DLL4 DVD-Ig; DVD486H
As for B9, the values for the EC50 (with biotinylated VEGF; in assay [1]) were 0.53 nM and 0.16 nM, respectively.

B10: DVD474 (bispecific antibody, human IgG1, kappa)
heavy: not shown
light: DIQMTQSPSSLSASVGDRVTITCRASQVIRRSLAWYQQKPGKAPKLLIYAASNLASGVPSRFSGSGSGTDFTLTISSLQPEDFATYYCQQSNTSPLTFGQGTKVEIKRTVAAPSVFIFPPDIQMTQSPSSLSASVGDRVTITCRASQDVSTAVAWYQQKPGKAPKLLIYSASFLYSGVPSRFSGSGSGTDFTLTISSLQPEDFATTYYCQQSYTGTVTFGQGTKVEIKRTVAAPSVFIFPPSDEQLKSGTASVVCLLNNFYPREAKVQWKVDNALQSGNSQESVTEQDSKDSTYSLSSTLTLSKADYEKHKVYACEVTHQGLSSPVTKSFNRGEC
notes: DVD-Ig, HC long / LC long; DLL4 domain C-terminal; also called VEGF / DLL4 DVD-Ig; DVD474H
With B10, the EC50 in the assay with biotinylated VEGF is 1.65 nM; in assay [1], 0.14 nM.

B11: DVD486 (VEGF (AB071) N-terminal / DLL4 (seq. 1) C-terminal DVD-Ig, short HC linker, long LC linker) (bispecific antibody, human IgG1, kappa)
heavy: not shown
light: DIQMTQSPSSLSASVGDRVTITCRASQVIRRSLAWYQQKPGKAPKLLIYAASNLASGVPSRFSGSGSGTDFTLTISSLQPEDFATYYCQQSNTSPLTFGQGTKVEIKRTVAAPSVFIFPPDIQMTQSPSSLSASVGDRVTITCRASQDVSTAVAWYQQKPGKAPKLLIYSASFLYSGVPSRFSGSGSGTDFTLTISSLQPEDFATTYYCQQSYTGTVTFGQGTKVEIKRTVAAPSVFIFPPSDEQLKSGTASVVCLLNNFYPREAKVQWKVDNALQSGNSQESVTEQDSKDSTYSLSSTLTLSKADYEKHKVYACEVTHQGLSSPVTKSFNRGEC
notes: also called DVD486H/DVD486L
As for B11, the “DVD-Ig Inhibition of sFlt1 (IC50, nM)” value in assay [3] came to 0.7 nM. Besides, the IC50 in assay [4] is 10.2 nM; in assay [5], 2.91 nM.

The values above are taken from patent US20100260668A1 (published 2010).
